Assay results as given in patent publication US20240124590A1 (ULTRAHUMAN EIGHT, published 2024).
Numbering of substitutions follows the chain as printed. In names and notes the source's numbering stands.

B1: IgG1-Mab005 (humanized) (antibody, V domains shown)
VH: EVQLVESGGGLVQPGGSLRLSCAASGFTFSSYMMSWVRQAPGKGLEWVATISGGGANTYYPDSVKGRFTISRDNAKNSLYLQMNSLRAEDTAVYYCARQLYYFDYWGQGTTVTVSS
VL: DIQMTQSPSSLSASVGDRVTITCLASQTIGTWLTWYQQKPGKAPKLLIYTATSLADGVPSRFSGSGSGTDFTLTISSLQPEDFATYYCQQVYSIPWTFGGGTKVEIK
notes: tested as human IgG1null (IgG1 with L234A, L235A, G237A) with human Ckappa; also called Mab005-IgG1 (humanized); Mab005-IgG1 (hum)
B2: IgG1-14 (antibody, V domains shown)
VH: B1 VH with M33L, A56S, N57E, T58K, P61V, Y102A, T111L
VL: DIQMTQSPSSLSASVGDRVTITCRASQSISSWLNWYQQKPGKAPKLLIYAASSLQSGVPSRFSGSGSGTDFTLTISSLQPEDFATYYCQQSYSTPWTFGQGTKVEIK
notes: Designer; human IgG1null + Ckappa; also called Antibody IgG1-14
B3: IgG1-11 (antibody, V domains shown)
VH: B1 VH with M33L, A56S, N57E, T58K, P61V, Y102F, T111L
VL: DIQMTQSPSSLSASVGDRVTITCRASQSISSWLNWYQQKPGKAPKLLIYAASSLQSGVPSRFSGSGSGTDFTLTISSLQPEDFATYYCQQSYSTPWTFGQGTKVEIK
notes: Designer; human IgG1null + Ckappa; also called Antibody IgG1-11
B4: IgG1-12H04 (antibody, V domains shown)
VH: B1 VH with M33L, N57E, T58K, P61V, Y102G, T111L
VL: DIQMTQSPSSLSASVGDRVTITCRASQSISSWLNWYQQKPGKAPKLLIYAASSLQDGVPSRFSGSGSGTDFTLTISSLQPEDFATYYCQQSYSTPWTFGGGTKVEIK
notes: Library-derived; human IgG1null + Ckappa
B5: Fab-Mab005 (Fab, V domains shown)
VH: B1 VH
VL: B1 VL
notes: Purified monomeric human Fab from E. coli, His tag, detected by c-myc; also called Mab005 (humanized) Fab
B6: Fab12H04 (Fab, V domains shown)
VH: B1 VH with M33L, N57E, T58K, P61V, Y102G, T111L
VL: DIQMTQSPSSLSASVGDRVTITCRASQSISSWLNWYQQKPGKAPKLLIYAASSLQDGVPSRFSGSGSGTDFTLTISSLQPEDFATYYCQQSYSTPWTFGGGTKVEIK
notes: Human Fab from E. coli, His/c-myc tags
B7: Fab06D02 (Fab, V domains shown)
VH: B1 VH with M33L, A56S, N57E, P61V, Y102G, T111L
VL: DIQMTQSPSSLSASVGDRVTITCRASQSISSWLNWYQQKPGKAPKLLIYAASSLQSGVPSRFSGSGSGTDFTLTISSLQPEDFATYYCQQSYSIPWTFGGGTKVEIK
notes: as for B6

molecular target: T1, human PD1 human Fc tagged recombinant protein (human, UniProt Q15116 25-170, limits assumed); assay: direct ELISA, IgG1null on coated PD1-Fc
T1 construct: also called huPD1-Fc; huPD-1-Fc; not shown: human Fc tag
Protocol: (§1) Binding and cross-reactivity of the lead panel to the recombinant proteins was initially assessed by binding ELISA. The human PD1 human Fc tagged recombinant protein and the cynomolgus monkey PD1 human Fc tagged recombinant protein were coated to the surface of MaxiSorp™ flat-bottom 96 well plate at 1 μg/ml. […] The Fabs were detected using mouse anti-c-myc antibody followed by donkey anti-mouse IgG conjugated to horseradish peroxidase. The IgGs were detected using the mouse anti-human IgG conjugated to horseradish peroxidase. Binding signals were visualized with 3,3′,5,5′-Tetrannethylbenzidine Substrate Solution (TMB) and the absorbance measured at 450 nm.
(§2) The purified IgGs described above were then tested for binding to human and cyno PD1-Fc in direct titration ELISA format. […] As the ELISA EC50 values for directly binding IgGs are strongly influenced by avidity, rather than true 1:1 binding affinity, we then proceeded to perform higher-sensitivity, solution-phase epitope competition and Biacore binding affinity determinations, as outlined below.

T1 sequence (Q15116 25-170 limits assumed): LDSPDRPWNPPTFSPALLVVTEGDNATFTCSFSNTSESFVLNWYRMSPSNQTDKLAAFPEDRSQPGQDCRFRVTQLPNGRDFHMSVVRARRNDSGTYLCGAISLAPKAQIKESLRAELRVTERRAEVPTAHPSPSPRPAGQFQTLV

Binder	EC50
B1	0.137 nM
B2	0.125 nM
B3	0.0492 nM

Molecular target: T2, cynomolgus monkey PD1 human Fc tagged recombinant protein (cynomolgus monkey, UniProt Q15116 25-170 (human entry), limits assumed)
T2 construct: also called cyPD1-Fc; cyPD-1-Fc; not shown: human Fc tag
T2 chain: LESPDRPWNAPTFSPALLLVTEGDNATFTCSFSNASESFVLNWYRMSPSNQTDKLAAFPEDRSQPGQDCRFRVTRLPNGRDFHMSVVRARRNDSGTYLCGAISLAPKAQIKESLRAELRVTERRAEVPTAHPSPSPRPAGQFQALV
Assay: direct ELISA, IgG1null on coated PD1-Fc
Protocol: as §1, §2

Binder	EC50
B1	0.152 nM
B2	0.0959 nM
B3	0.0498 nM

molecular target: T3, human PD1 expressed on cells (human, UniProt Q15116 25-288); assay: flow cytometry, PD1 CHO-K1 cells
T3 construct: also called human PD1+ CHO cells; PD1-transfected HEK293 cells
Protocol: (§3) Purified IgGs were tested in FACs for binding to human and cyno PD1 expressed on CHO-K1 stable cell lines and CHO-K1 wild-type cells. […] Binding of IgGs was detected with a mouse anti-human IgG conjugated to FITC. Results were analyzed by examining the Mean Fluorescence Intensity (MFI) of 10000 cells per sample in the BL-1 channel detector of a flow cytometer (Attune™ NxT Acoustic Focusing Cytometer, Invitrogen/ThermoFisher Scientific).
(§4) Antibodies to PD1 were analysed for concentration-dependent binding at the cell surface via flow cytometry. Initial analyses were performed on CHO cells stably-transfected with human or cyno PD1.

T3 sequence (Q15116 25-288 limits assumed): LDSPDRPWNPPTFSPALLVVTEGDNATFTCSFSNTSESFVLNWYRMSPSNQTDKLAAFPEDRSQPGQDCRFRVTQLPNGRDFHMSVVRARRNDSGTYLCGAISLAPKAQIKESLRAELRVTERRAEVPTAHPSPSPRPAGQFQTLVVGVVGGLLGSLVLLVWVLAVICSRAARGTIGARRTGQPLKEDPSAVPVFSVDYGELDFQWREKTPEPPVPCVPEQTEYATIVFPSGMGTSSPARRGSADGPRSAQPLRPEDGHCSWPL

Binder	EC50
B1	2.32 nM
B2	1.87 nM
B4	1.95 nM
B3	0.978 nM

Molecular target: T4, cyno PD1 expressed on CHO-K1 cells (cynomolgus monkey, UniProt Q15116 25-288 (human entry))
T4 construct: also called cyno PD1+ CHO cells
T4 chain: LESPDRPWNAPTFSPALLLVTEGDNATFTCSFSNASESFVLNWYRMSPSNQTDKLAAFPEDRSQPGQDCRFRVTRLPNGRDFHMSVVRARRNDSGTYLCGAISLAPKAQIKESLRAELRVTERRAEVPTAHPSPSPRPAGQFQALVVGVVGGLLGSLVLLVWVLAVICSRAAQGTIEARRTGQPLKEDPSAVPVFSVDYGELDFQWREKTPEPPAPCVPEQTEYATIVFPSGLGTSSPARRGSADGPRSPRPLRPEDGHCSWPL
Assay: flow cytometry, PD1 CHO-K1 cells
Protocol: as §3, §4

Binder	EC50
B1	6.53 nM
B2	1.33 nM
B4	2.17 nM
B3	0.861 nM

Molecular target: T5, cynomolgus monkey PD1 His tag (monomeric) (cynomolgus monkey, UniProt Q15116 25-170 (human entry), limits assumed)
T5 construct: Soluble monomeric analyte; whole entry named; also called monomeric cyno PD1; not shown: His tag
T5 chain: T2 chain
Assay: SPR (Biacore), IgG captured, monomeric PD1-His analyte
Protocol: (§5) Affinity (KD) of purified IgGs was determined via SPR with antigen in-solution on a Biacore 3000 (GE). A mouse anti-human antibody (CH1 specific) was immobilized on a CM5 Sensor Chip to a level of 2000 RU in acetate buffer at pH 4.5 using amine coupling following the Wizard instructions for two channels. One channel was used for background signal correction. The standard running buffer HBS-EP pH 7.4 was used. Regeneration was performed with a single injection of 10 μl of 10 mM Glycine at pH 1.5 at 20 μl/minute. IgG samples were injected for 2 minutes at 50 nM at 30 μl/min followed by and off-rate of 60 seconds. […] The obtained sensorgrams were analysed using the Biacore 3000 evaluation (BIAevaluation) software. The KD was calculated by simultaneous fitting of the association and dissociation phases to a 1:1 Langmuir binding model.
(§6) Biacore analyses of binding affinity was performed for all IgGs to solution-phase, monomeric human and cyno PD1 proteins.

Binder	Kd	koff	kon
B1	32 nM	0.0028 s⁻¹	88000 M⁻¹ s⁻¹
B2	6.9 nM	0.00097 s⁻¹	140000 M⁻¹ s⁻¹
B4	4.7 nM	0.00064 s⁻¹	140000 M⁻¹ s⁻¹
B3	7.1 nM	0.00073 s⁻¹	100000 M⁻¹ s⁻¹

molecular target: T6, human PD1 His tagged (monomeric) (human, UniProt Q15116 25-170, limits assumed); assay: as above
T6 construct: Soluble monomeric analyte; whole entry named; also called monomeric human PD1; not shown: His tag
Protocol: as §5, §6

T6 sequence (Q15116 25-170 limits assumed): as the sequence (Q15116 25-170 limits assumed) above

Binder	Kd	koff	kon
B1	4 nM	0.00047 s⁻¹	120000 M⁻¹ s⁻¹
B2	2.57 nM	0.00046 s⁻¹	180000 M⁻¹ s⁻¹
B4	1.6 nM	0.00032 s⁻¹	200000 M⁻¹ s⁻¹
B3	3.01 nM	0.0004 s⁻¹	130000 M⁻¹ s⁻¹

molecular target: T3, human PD1 expressed on cells; assay: cell-based or functional assay

Binder	EC50 (ng/ml), IgG1null blockade of human PD1/PD-L1
B1	285 ng/mL
B2	212 ng/mL
B4	188 ng/mL
B3	172 ng/mL

Molecular target: T5, cynomolgus monkey PD1 His tag …
Assay: SPR (Biacore); cyno KD against human KD
Protocol: as §5, §6

Binder	human/cyno affinity differential (fold)
B1	8 fold

molecular target: T7, human KDR (VEGFR2) on cells (human, UniProt P35968 20-1356); assay: cell microarray re-array, transfected HEK293
T7 construct: Transfected HEK293 cells (arrays, flow cytometry) and human VEGFR2 reporter cells
Protocol: (§7) Antibody binding was detected using AF647 fluorescent secondary anti-human IgG1 antibody. Primary hits (duplicate spots) were identified by analysing fluorescence (AF647 and ZsGreen1) on ImageQuant. Vectors encoding all hits were sequenced to confirm their correct identities. […] Slides were analysed as above. Flow cytometry confirmation screen: Expression vectors encoding ZsGreen1 only, or ZsGreen1 and PD1, FZDS, KDR or ULBP2, were transfected into human HEK293 cells. Each live transfectant was incubated with […] of each of the test antibodies and the Isotype control antibody. Cells were washed, and incubated with the same AF647 anti-human IgG Fc detection antibody as used in the cell microarray screens. Cells were again washed, and analysed by flow cytometry using an Accuri flow cytometer (BD). A 7AAD live/dead dye was used to exclude dead cells, and ZsGreen1-positive cells (i.e. transfected cells) were selected for analyses.

T7 sequence (P35968 20-1356 limits assumed): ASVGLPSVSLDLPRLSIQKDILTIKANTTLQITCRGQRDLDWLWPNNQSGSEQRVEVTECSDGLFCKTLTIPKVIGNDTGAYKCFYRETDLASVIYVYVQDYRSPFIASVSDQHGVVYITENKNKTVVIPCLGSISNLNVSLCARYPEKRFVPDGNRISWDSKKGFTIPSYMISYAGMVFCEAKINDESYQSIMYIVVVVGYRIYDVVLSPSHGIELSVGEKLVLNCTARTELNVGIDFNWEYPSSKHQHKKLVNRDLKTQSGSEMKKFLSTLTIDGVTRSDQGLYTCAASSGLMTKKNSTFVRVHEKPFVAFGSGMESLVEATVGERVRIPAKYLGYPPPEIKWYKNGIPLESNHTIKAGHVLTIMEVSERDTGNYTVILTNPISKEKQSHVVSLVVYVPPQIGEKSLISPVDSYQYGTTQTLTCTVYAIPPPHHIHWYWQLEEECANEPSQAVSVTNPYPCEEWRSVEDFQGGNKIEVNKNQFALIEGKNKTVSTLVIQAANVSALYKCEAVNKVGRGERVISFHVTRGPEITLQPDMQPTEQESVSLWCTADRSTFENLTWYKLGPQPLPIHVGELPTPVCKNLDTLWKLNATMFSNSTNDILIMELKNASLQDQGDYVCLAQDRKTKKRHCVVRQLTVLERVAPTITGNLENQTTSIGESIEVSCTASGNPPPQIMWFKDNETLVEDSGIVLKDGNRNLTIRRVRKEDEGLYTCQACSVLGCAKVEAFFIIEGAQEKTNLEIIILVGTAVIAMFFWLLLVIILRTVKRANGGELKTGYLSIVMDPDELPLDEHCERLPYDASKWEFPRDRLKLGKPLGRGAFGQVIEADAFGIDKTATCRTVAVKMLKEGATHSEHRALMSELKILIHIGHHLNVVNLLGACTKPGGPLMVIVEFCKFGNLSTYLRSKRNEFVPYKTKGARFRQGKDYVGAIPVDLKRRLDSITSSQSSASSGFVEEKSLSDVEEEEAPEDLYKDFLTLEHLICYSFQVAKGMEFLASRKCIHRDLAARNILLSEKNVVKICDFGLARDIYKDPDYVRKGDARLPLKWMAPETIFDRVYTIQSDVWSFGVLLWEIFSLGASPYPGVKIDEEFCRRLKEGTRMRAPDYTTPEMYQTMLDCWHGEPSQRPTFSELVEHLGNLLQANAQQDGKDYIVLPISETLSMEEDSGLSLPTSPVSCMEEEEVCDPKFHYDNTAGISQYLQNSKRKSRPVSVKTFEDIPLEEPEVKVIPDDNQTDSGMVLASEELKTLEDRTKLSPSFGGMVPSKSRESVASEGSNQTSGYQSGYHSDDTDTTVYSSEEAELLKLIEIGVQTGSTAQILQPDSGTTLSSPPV

Binder	binding result
B2	no binding (tested: 5 µg/ml)
B3	no binding (tested: 5 µg/ml)

molecular target: T8, human FZD5 (frizzled class receptor 5) on transfected HEK293 cells (human, UniProt Q13467 27-585); assay: cell microarray re-array, transfected HEK293
T8 construct: also called FZDS; FZ5
Protocol: as §7

T8 sequence (Q13467 27-585 limits assumed): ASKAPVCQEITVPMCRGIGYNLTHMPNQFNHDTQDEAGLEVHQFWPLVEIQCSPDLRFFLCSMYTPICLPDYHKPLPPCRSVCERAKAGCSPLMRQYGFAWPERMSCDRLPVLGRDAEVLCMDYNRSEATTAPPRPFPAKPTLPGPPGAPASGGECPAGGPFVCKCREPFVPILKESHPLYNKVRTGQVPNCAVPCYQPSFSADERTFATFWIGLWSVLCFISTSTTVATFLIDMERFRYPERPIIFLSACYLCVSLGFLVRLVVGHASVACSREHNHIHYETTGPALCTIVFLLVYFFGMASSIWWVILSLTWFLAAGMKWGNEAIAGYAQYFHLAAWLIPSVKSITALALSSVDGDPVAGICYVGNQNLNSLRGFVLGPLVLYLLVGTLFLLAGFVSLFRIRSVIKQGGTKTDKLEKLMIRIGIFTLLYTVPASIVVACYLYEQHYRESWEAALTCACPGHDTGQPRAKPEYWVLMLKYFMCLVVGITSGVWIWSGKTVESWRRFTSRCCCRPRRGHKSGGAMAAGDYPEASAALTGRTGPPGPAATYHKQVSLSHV

Binder	binding result
B2	no binding (tested: 5 µg/ml)
B3	no binding (tested: 5 µg/ml)

molecular target: T9, human ULBP2 (UL16 binding protein 2) on transfected HEK293 cells (human, UniProt Q9BZM5 26-217); assay: cell microarray re-array, transfected HEK293
T9 sequence: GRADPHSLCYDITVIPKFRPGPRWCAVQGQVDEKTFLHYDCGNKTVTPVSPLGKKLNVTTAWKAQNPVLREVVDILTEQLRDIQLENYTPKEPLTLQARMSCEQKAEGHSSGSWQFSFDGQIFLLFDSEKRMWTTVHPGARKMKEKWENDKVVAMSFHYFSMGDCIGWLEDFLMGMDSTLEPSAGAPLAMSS
Protocol: as §7

Binder	binding result
B2	no binding (tested: 5 µg/ml)
B3	no binding (tested: 5 µg/ml)

molecular target: T1, human PD1 human Fc tagged recombinant …; assay: direct ELISA, Fab on coated PD1-Fc
Protocol: as §1
(§8) The top 12 clones were also expressed as Fab protein from E. coli expression, purified to homogeneity, quantified, and applied in direct ELISA binding analyses on human PD1-Fc and cyno PD1-Fc (FIGS. 2A&B, Table 5).

Binder	EC50
B5	1.25 nM
B6	0.708 nM
B7	0.743 nM

Molecular target: T2, cynomolgus monkey PD1 human Fc tagged …
Assay: direct ELISA, Fab on coated PD1-Fc
Protocol: as §1, §8

Binder	EC50
B6	1.4 nM
B7	1.01 nM

molecular target: T1, human PD1 human Fc tagged recombinant …; assay: direct ELISA, IgG1null on coated PD1-Fc; remark: another data set of the same source
Protocol: as §1, §2

Binder	EC50
B1	0.114 nM
B4	0.112 nM

Molecular target: T2, cynomolgus monkey PD1 human Fc tagged …
Assay: direct ELISA, IgG1null on coated PD1-Fc
Remark: another data set of the same source
Protocol: as §1, §2

Binder	EC50
B1	0.132 nM
B4	0.12 nM

molecular target: T10, biotinylated human PD1-His/AviTag (human, UniProt Q15116 25-170, limits assumed, biotinylated); assay: Alphascreen competition vs IgG1-Mab005 (humanized)
T10 construct: Alphascreen antigen; whole entry named; also called biotinylated monomeric human PD1; not shown: His/AviTag
Protocol: The AlphaScreen assay (Perkin Elmer) was performed in a 25 μl final volume in 384-well white microtiter plates (Greiner). The reaction buffer contained 1×PBS pH 7.3 (Oxoid, Cat. nr. BRO014G) and 0.05% (v/v) Tween® 20 (Sigma, Cat. nr. P9416). Purified IgG samples were titrated in three fold serial dilutions starting at 500 nM final concentration and incubated with biotinylated human PD1-His/AviTag at 0.6 nM final concentration for 20 minutes at room temperature. […] Followed by addition of the Streptavidin Donor beads at 20 μg/ml (final concentration) and incubation for 30 minutes at room temperature. The emission of light was measured in the EnVision multilabel plate reader (Perkin Elmer) and analysed using the EnVision manager software. Values were reported as Counts Per Second (CPS) and corrected for crosstalk.

T10 sequence (Q15116 25-170 limits assumed): as the sequence (Q15116 25-170 limits assumed) above

Binder	IC50
B1	2.14 nM
B2	3 nM
B4	4.01 nM
B3	1.41 nM
